Assay results reported in patent US20220144916A1 (University of Texas, published 2022).

Target: human IgG1 coated on ELISA plates (human, UniProt P01857-1 1-330 = IgG part)
Assay: competition ELISA, human IgG1 coat; blocked ligand FLAG-tagged FcγRIIIA, anti-FLAG-HRP [panel B]

B1: HCMV viral Fcγ receptor gp34 (residues 24-182), soluble, strep and FLAG tags (receptor)
chain: SSSNAVEPTKKPLKLANYRATCEDRTRTLVTRLNTSHHSVVWQRYDIYSRYMRRMPPLCIITDAYKETTRQGGAAFACTRQNLTLYNLTVKDTGVYLLQDQYTGDVEAFYLIIHPRSFCRALETRRCFYPGPGRVVVTDSQEADRAIISDLKRQWSGLS
notes: range 24-182
IC50 (read off the curve): ~0.03 µM
